# Results published in paper PMC2577338.
# pKd: −log10 of the molar value.
# Experiments:
# [1] = target: S. cerevisiae ribosomes with L10 Y9C (S. cerevisiae) (UniProt P41805)
# [2] = target: S. cerevisiae ribosomes with L10 R7L (S. cerevisiae) (UniProt P41805)
# [3] = target: S. cerevisiae ribosomes with L10 Y11C (S. cerevisiae) (UniProt P41805)
# [4] = target: S. cerevisiae ribosomes with L10 R7Q (S. cerevisiae) (UniProt P41805)
# [5] = target: wild-type S. cerevisiae ribosomes (wild-type L10) (S. cerevisiae) (UniProt P41805)
# [6] = target: S. cerevisiae ribosomes with L10 R7P (S. cerevisiae) (UniProt P41805)
# [7] = target: S. cerevisiae ribosomes with L10 Y9N (S. cerevisiae) (UniProt P41805)
substance,measurement,setting,value
eEF2 (eukaryotic elongation factor 2) (from UniProt P32324 1-842) (natural protein),pKd,[1],8.28
same,pKd,[2],7.97
same,pKd,[3],7.78
same,pKd,[4],8.21
same,pKd,[5],7.97
same,pKd,[6],8.18
same,pKd,[7],8.01
